From PMC9454804 come the findings set out here.

In experiment [1] the target is Vascular Endothelial Growth Factor Receptor 1 (VEGFR1) (mouse (endogenous in C57BL/6 and eNOS-KO skeletal muscle)) (UniProt P35969).
Experiment [2] has the same target. This is another data set of the same source.
Experiment [3] has the same target. The source holds these as a separate data set.

Chain of UniProt P35969 (P35969 23-1333 S1181G): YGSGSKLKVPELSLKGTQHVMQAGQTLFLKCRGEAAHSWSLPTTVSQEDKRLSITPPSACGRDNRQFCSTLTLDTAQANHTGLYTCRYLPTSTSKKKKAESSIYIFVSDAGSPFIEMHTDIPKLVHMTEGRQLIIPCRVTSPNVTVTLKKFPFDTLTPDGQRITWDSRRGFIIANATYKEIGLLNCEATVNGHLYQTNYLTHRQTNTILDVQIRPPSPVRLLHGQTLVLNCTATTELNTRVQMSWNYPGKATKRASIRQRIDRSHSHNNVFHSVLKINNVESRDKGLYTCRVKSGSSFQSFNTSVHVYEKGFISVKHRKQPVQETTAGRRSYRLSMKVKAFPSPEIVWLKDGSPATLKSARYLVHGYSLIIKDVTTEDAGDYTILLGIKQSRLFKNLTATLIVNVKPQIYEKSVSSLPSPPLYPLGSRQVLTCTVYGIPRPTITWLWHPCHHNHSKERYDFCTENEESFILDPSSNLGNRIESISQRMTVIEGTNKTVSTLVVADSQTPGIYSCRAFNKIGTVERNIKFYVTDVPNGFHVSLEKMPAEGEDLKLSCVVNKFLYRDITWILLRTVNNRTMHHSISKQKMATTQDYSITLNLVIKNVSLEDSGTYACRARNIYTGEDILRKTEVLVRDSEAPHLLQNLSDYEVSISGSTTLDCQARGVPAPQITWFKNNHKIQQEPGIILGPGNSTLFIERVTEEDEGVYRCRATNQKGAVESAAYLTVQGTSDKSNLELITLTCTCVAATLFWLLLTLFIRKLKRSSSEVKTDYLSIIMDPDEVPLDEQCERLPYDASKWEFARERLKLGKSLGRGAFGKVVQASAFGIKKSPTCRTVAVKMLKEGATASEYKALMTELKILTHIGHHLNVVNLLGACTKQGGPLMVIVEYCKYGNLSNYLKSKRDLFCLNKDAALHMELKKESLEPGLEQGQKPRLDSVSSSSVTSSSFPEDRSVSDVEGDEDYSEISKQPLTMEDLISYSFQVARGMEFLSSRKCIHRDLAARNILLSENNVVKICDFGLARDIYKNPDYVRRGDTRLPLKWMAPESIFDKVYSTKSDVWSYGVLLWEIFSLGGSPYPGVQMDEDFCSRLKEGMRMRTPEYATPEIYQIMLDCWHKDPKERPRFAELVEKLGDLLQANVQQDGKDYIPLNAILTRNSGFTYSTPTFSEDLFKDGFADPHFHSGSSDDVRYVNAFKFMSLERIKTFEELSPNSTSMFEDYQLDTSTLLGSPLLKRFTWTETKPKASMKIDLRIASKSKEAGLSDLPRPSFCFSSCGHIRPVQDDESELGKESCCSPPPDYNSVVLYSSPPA

In experiment [1], “anti-angiogenic VEGF-A isoform VEGF165b (ligand)” registered a pSTAT3 activation, HFD-ischemic muscle treated with VEGF165b-Ab vs. IgG at day 3 post-HLI of 1.5 fold and a pVEGFR1(Y1333) activation, HFD-ischemic muscle treated with VEGF165b-Ab vs. IgG at day 3 post-HLI of 1.5 fold. Besides, in experiment [2], the pSTAT3 activation, eNOS-KO ischemic muscle treated with VEGF165b-Ab vs. IgG was 1.4 fold and the pVEGFR1(Y1333) activation in VEGFR1 pull-down fractions, eNOS-KO ischemic muscle treated with VEGF165b-Ab vs. IgG turned out to be 1.3 fold. The substance also had a pVEGFR1(Y1333) activation in VEGFR1 pull-down fractions, non-ischemic HFD vs. non-ischemic normal chow muscle in experiment [3] of 1.5 fold.
